# In US20140242093A1, “METHODS AND COMPOSITIONS FOR MODULATING THE INNATE IMMUNE RESPONSE AND/OR MYOGENESIS IN A MAMMALIAN SUBJECT” (FRED HUTCHINSON CANCER RESEARCH CENTER, priority 2011, published 2014):
# System: control human primary myoblasts
# Assay: Expression microarray of primary myoblasts transduced with lentivirus carrying DUX4-fl, DUX4-s or GFP
# Experimental: Primary human myoblasts were collected and cultured as previously described (Snider et al., 2010). Primary myoblasts were maintained at or below 70% confluency for proliferation. For differentiation, cells were allowed to reach 95-100% confluency in growth medium. Once confluency was reached, the cells were changed to differentiation medium (F10 media supplemented with 1% horse serum, 10 μg/mL insulin, and 10 μg/mL transferrin, penicillin/streptomycin) and maintained for 4 days. Human RD cells were grown in DMEM in 10% bovine calf serum (Hyclone) and penicillin/streptomycin. The primary myoblasts were transduced with lentivirus carrying DUX-fl, DUX4- or GFP (MOI=15).
# Expression microarrays were performed on the transduced cells at 24 hours after transduction as follows. […] Samples were analyzed by Illumina Human Whole Genome microarrays. Probe intensities were corrected, normalized, and summarized by the Lumi package of Bioconductor (Du et al., 2008). Differentially expressed genes were identified by the LIMMA package of Bioconductor (Wettenhall and Smyth, 2004). Gene set enrichment analysis (GSEA) was performed using the Bioconductor GOstats package (Falcon and Gentleman, 2007).
molecule,measurement,setting,value
"DUX4-s: short splice form of DUX4 (SEQ ID NO:112), keeps the double-homeobox domains, lacks the C-terminal activation domain (protein, listed as Homo sapiens) MALPTPSDSTLPAEARGRGRRRRLVWTPSQSEALRACFERNPYPGIATRERLAQAIGIPEPRVQIWFQNERSRQLRQHRRESRPWPGRRGPPEGRRKRTAVTGSQTALLLRAFEKDRFPGIAAREELARETGLPESRIQIWFQNRRARHPGQGGRAPAQV",PNMA6B expression fc,Refseq XM_001721351.1,−0.2189
same,LOC100133984 expression fc,Refseq XM_001723079.1,−0.03265
same,LOC649330 expression fc,Refseq XM_001723218.1,−0.2697
same,LOC100128202 expression fc,Refseq XM_001723719.1,−0.1157
same,LOC100130311 expression fc,Refseq XM_001724111.1,0.1436
same,LOC100131539 expression fc,Refseq XM_001724873.1,0.06524
same,LOC100134006 expression fc,Refseq XM_001725030.1,−0.02089
same,LOC730167 expression fc,Refseq XM_001726158.1,1.257
same,LOC100129681 expression fc,"Refseq XM_001726834.1, cultured human skeletal muscle",0.5189
same,LOC651709 expression fc,Refseq XM_001732813.1,0.09445
same,LOC727828 expression fc,Refseq XR_015137.1,−0.00556
same,LOC728060 fc,Refseq XR_015272.2,0.2553
same,LOC732393 expression fc,Refseq XR_015873.1,0.03683
same,MGC40489 expression fc,Refseq XR_016048.1,−0.4604
same,LOC643263 expression fc,Refseq XR_016355.1,−0.133
same,LOC441081 expression fc,Refseq XR_017029.1,0.06023
same,LOC647366 expression fc,Refseq XR_018122.1,−0.003339
same,LOC440041 expression fc,Refseq XR_018122.2,0.021
same,LOC647827 expression fc,Refseq XR_018213.1,−0.05208
same,LOC399988 expression fc,Refseq XR_018287.2,−0.4131
same,LOC650215 fc,Refseq XR_018889.1,0.6386
same,fc of RBMS2P (expression array),Refseq XR_019556.2,1.313
same,LOC642148 expression fc,Refseq XR_019607.1,0.1352
same,LOC650236 expression fc,Refseq XR_036872.1,−0.05945
same,LOC100134322 expression fc,Refseq XR_037416.1,0.1962
same,LOC730974 expression fc,Refseq XR_037751.1,0.02384
same,LOC643445 expression fc,Refseq XR_038080.1,0.07882
same,LOC729516 expression fc,Refseq XR_038445.1,−0.00369
same,LOC340970 expression fc,Refseq XR_038494.1,0.03296
same,LOC645381 expression fc,Refseq XR_038557.1,−0.1266
same,LOC728429 expression fc,Refseq XR_038921.1,−0.02834
same,LOC645638 fc,Refseq XR_040455.1,−0.07113
same,LOC400464 expression fc,Refseq XR_041115.1,−0.07853
same,TRIM53 expression fc,Refseq XR_041244.1,0.07913
same,LOC729009 expression fc,"Refseq XR_042330.1, cultured human skeletal muscle",0.6634
same,ABCC3 expression fc,cultured human skeletal muscle,0.1349
same,ADM expression fc,cultured human skeletal muscle,0.6367
same,AGTRAP expression fc,cultured human skeletal muscle,0.6152
same,AHNAK expression fc,cultured human skeletal muscle,0.163
same,ANGPTL2 expression fc,cultured human skeletal muscle,−0.7837
same,ANKFY1 expression fc,cultured human skeletal muscle,0.09409
same,APOL3 expression fc,cultured human skeletal muscle,0.9777
same,ARHGEF19 expression fc,cultured human skeletal muscle,0.1103
same,ARID3A expression fc,cultured human skeletal muscle,0.2867
same,ASNS expression fc,cultured human skeletal muscle,0.7133
same,ATF5 expression fc,cultured human skeletal muscle,0.5025
same,ATL3 expression fc,cultured human skeletal muscle,1.352
same,BHLHB2 expression fc,cultured human skeletal muscle,0.6222
same,BTG2 expression fc,cultured human skeletal muscle,−0.1242
same,BTN3A2 expression fc,cultured human skeletal muscle,0.3356
same,BTN3A3 expression fc,cultured human skeletal muscle,0.4019
same,C1RL expression fc,cultured human skeletal muscle,−0.1589
same,C4orf18 expression fc,cultured human skeletal muscle,−0.5109
same,C8orf13 expression fc,cultured human skeletal muscle,0.4235
same,C14orf4 expression fc,cultured human skeletal muscle,0.05349
same,C18orf56 expression fc,cultured human skeletal muscle,0.2126
same,CA9 expression fc,cultured human skeletal muscle,0.5237
same,CABC1 expression fc,cultured human skeletal muscle,−0.1757
same,CABYR expression fc,cultured human skeletal muscle,−0.04313
same,CCDC8 expression fc,cultured human skeletal muscle,−0.09225
same,CEBPD expression fc,cultured human skeletal muscle,0.1596
same,CLDN15 expression fc,cultured human skeletal muscle,−0.3718
same,CNTNAP1 expression fc,cultured human skeletal muscle,0.1486
same,COL8A1 expression fc,cultured human skeletal muscle,0.469
same,CRISPLD2 expression fc,cultured human skeletal muscle,−0.45
same,CSF3 expression fc,cultured human skeletal muscle,0.8126
same,CYGB expression fc,cultured human skeletal muscle,0.157
same,CYP26B1 expression fc,cultured human skeletal muscle,0.4149
same,CYP27A1 expression fc,cultured human skeletal muscle,−0.0598
same,DAB2 expression fc,cultured human skeletal muscle,0.1092
same,DCN expression fc,cultured human skeletal muscle,0.2641
same,DDB2 expression fc,cultured human skeletal muscle,0.1073
same,DDIT4 expression fc,cultured human skeletal muscle,0.346
same,DDX60L expression fc,cultured human skeletal muscle,0.6578
same,DKFZp451A211 expression fc,cultured human skeletal muscle,0.3087
same,DNAJB2 expression fc,cultured human skeletal muscle,−0.01635
same,DUSP10 expression fc,cultured human skeletal muscle,−0.3659
same,ERAP2 expression fc,cultured human skeletal muscle,0.7658
same,ESPNL expression fc,cultured human skeletal muscle,−0.2957
same,FADS1 expression fc,cultured human skeletal muscle,0.4186
same,FAM110B expression fc,cultured human skeletal muscle,−0.7651
same,FAM175A expression fc,cultured human skeletal muscle,0.2667
same,FHL2 expression fc,cultured human skeletal muscle,−0.08794
same,FILIP1L expression fc,cultured human skeletal muscle,0.06528
same,FKBP5 expression fc,cultured human skeletal muscle,−0.1027
same,FOXQ1 expression fc,cultured human skeletal muscle,0.6403
same,FPR1 expression fc,cultured human skeletal muscle,0.9327
same,FST expression fc,cultured human skeletal muscle,0.9107
same,FUCA1 expression fc,cultured human skeletal muscle,0.2909
same,GALK1 expression fc,cultured human skeletal muscle,−0.5288
same,GALNTL2 expression fc,cultured human skeletal muscle,0.9881
same,GAS1 expression fc,cultured human skeletal muscle,0.007049
same,GBP4 expression fc,cultured human skeletal muscle,2.337
same,GFPT2 expression fc,cultured human skeletal muscle,0.04945
same,GPX8 expression fc,cultured human skeletal muscle,−0.3321
same,GRINA expression fc,cultured human skeletal muscle,0.4683
same,GSDMD expression fc,cultured human skeletal muscle,0.5738
same,HAS2 expression fc,cultured human skeletal muscle,0.691
same,HCG4 expression fc,cultured human skeletal muscle,0.6838
same,HES4 expression fc,cultured human skeletal muscle,1.068
same,HLA-C expression fc,cultured human skeletal muscle,0.6015
same,HLA-H expression fc,cultured human skeletal muscle,0.327
same,HOXC6 expression fc,cultured human skeletal muscle,−0.1927
same,ID3 expression fc,cultured human skeletal muscle,−0.07117
same,IDH3B expression fc,cultured human skeletal muscle,0.07117
same,IFIT5 expression fc,cultured human skeletal muscle,−0.2831
same,IFITM2 expression fc,cultured human skeletal muscle,0.006726
same,IGFBP5 expression fc,cultured human skeletal muscle,0.178
same,IHPK3 expression fc,cultured human skeletal muscle,−0.09089
same,IL32 expression fc,cultured human skeletal muscle,0.06112
same,IMPA2 expression fc,cultured human skeletal muscle,−0.3411
same,IRAK2 expression fc,cultured human skeletal muscle,0.5116
same,IRAK3 expression fc,cultured human skeletal muscle,1.053
same,ISCU expression fc,cultured human skeletal muscle,0.03975
same,ITPRIP expression fc,cultured human skeletal muscle,0.5516
same,KIAA1618 expression fc,cultured human skeletal muscle,−0.2961
same,KLF6 expression fc,cultured human skeletal muscle,0.6419
same,KRT17 expression fc,cultured human skeletal muscle,0.4585
same,LAP3 expression fc,cultured human skeletal muscle,1.402
same,LIMA1 expression fc,cultured human skeletal muscle,0.2565
same,LOC387763 expression fc,cultured human skeletal muscle,0.2048
same,LOC389386 expression fc,cultured human skeletal muscle,1.37
same,LOC392437 expression fc,cultured human skeletal muscle,0.113
same,LOC653879 expression fc,cultured human skeletal muscle,0.3261
same,LOC728431 expression fc,cultured human skeletal muscle,0.4549
same,MAMDC2 expression fc,cultured human skeletal muscle,−0.02851
same,MAOA expression fc,cultured human skeletal muscle,−0.3759
same,MCEE expression fc,cultured human skeletal muscle,−0.341
same,MGC16121 expression fc,cultured human skeletal muscle,0.01304
same,MIOS expression fc,cultured human skeletal muscle,0.1238
same,MLPH expression fc,cultured human skeletal muscle,0.4233
same,MMP3 expression fc,cultured human skeletal muscle,0.2839
same,MOCOS expression fc,cultured human skeletal muscle,0.4177
same,MOV10 expression fc,cultured human skeletal muscle,0.6869
same,MSC expression fc,cultured human skeletal muscle,0.2529
same,MSI2 expression fc,cultured human skeletal muscle,1.327
same,MT1A expression fc,cultured human skeletal muscle,−0.1212
same,MT2A expression fc,cultured human skeletal muscle,0.08469
same,MUC1 expression fc,cultured human skeletal muscle,0.3508
